One block for each binder: values may come before it.
Legend:
[1] = molecular target: T1, APC9096-AA; assay: two-hybrid library CCmax; settings: mean of both orientations;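 also: natural log of median RNA to DNA barcode read ratio; higher means stronger binding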
T1 chain: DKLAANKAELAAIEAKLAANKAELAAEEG

[2] = molecular target: T2, APC7099-AA; assay: two-hybrid library CCmax; settings: mean of both orientations;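 also: natural log of median RNA to DNA barcode read ratio; higher means stronger binding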
T2 chain: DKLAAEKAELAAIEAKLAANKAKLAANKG

[3] = molecular target: T3, APC5383-AA; assay: two-hybrid library CCmax; settings: mean of both orientations;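 also: natural log of median RNA to DNA barcode read ratio; higher means stronger binding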
T3 chain: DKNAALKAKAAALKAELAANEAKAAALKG

[4] = molecular target: T4, APC4436-AA; assay: two-hybrid library CCmax; settings: mean of both orientations;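 also: natural log of median RNA to DNA barcode read ratio; higher means stronger binding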
T4 chain: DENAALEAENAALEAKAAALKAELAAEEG

[5] = molecular target: T5, APC8910-AA; assay: two-hybrid library CCmax; settings: mean of both orientations;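 also: natural log of median RNA to DNA barcode read ratio; higher means stronger binding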
T5 chain: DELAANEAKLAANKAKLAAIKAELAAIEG

[6] = molecular target: T6, APC4011-AA; assay: two-hybrid library CCmax;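 also: natural log of median RNA to DNA barcode read ratio; higher means stronger binding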
T6 chain: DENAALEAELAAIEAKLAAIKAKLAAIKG

[7] = molecular target: T7, APC8191-AA; assay: two-hybrid library CCmax
T7 chain: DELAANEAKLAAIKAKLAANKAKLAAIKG

[8] = molecular target: T8, APC4264-AA; assay: two-hybrid library CCmax; settings: mean of both orientations
T8 chain: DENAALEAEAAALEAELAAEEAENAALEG

[9] = molecular target: T9, APC6108-AA; assay: two-hybrid library CCmax; settings: mean of both orientations
T9 chain: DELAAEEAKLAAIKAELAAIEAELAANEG

[10] = molecular target: T10, APC9319-AA; assay: two-hybrid library CCmax; settings: mean of both orientations
T10 chain: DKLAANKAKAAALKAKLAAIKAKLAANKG

[11] = molecular target: T11, 4H575-bN; assay: two-hybrid library CCNG1
T11 chain: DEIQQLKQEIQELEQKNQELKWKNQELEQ

[12] = molecular target: T12, 4H3926-bN; assay: two-hybrid library CCNG1; settings: mean of both orientations
T12 chain: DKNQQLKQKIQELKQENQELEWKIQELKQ

[13] = molecular target: T13, 4H953-bN; assay: two-hybrid library CCNG1
T13 chain: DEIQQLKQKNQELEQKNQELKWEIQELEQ

[14] = molecular target: T14, 4H855-bN; assay: two-hybrid library CCNG1
T14 chain: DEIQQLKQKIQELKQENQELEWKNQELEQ

[15] = molecular target: T15, 4H683-bN; assay: two-hybrid library CCNG1
T15 chain: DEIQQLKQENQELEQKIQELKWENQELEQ

[16] = molecular target: T16, 4H754-bN; assay: two-hybrid library CCNG1
T16 chain: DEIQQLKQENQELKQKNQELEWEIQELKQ

[17] = molecular target: T17, 4H968-bN; assay: two-hybrid library CCNG1
T17 chain: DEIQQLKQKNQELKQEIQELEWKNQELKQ

[18] = molecular target: T18, 4H457-bN; assay: two-hybrid library CCNG1
T18 chain: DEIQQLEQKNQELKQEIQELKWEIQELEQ

[19] = molecular target: T19, 4H780-bN; assay: two-hybrid library CCNG1
T19 chain: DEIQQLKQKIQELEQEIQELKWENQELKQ

[20] = molecular target: T20, 4H906-bN; assay: two-hybrid library CCNG1
T20 chain: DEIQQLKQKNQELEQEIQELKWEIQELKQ

[21] = molecular target: T21, 4H626-bN; assay: two-hybrid library CCNG1
T21 chain: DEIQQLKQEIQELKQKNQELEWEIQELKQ

[22] = molecular target: T22, 4H797-bN; assay: two-hybrid library CCNG1
T22 chain: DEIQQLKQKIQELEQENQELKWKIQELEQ

[23] = molecular target: T23, 4H918-bN; assay: two-hybrid library CCNG1
T23 chain: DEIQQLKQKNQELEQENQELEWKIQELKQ

[24] = molecular target: T24, 4H4073-bN; assay: two-hybrid library CCNG1
T24 chain: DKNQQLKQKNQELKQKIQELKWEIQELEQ

[25] = molecular target: T25, 4H591-bN; assay: two-hybrid library CCNG1
T25 chain: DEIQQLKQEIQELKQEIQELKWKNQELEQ

[26] = molecular target: T26, 4H56-bA; assay: two-hybrid library CCNG1
T26 chain: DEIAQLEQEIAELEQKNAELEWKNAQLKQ

[27] = molecular target: T27, 4H932-bA; assay: two-hybrid library CCNG1
T27 chain: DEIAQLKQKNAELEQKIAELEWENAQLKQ

[28] = molecular target: T28, 4H349-bA; assay: two-hybrid library CCNG1
T28 chain: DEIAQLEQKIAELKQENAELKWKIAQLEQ

[29] = molecular target: T29, 4H730-bA; assay: two-hybrid library CCNG1
T29 chain: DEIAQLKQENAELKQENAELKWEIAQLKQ

[30] = molecular target: T30, 4H3381-bA; assay: two-hybrid library CCNG1
T30 chain: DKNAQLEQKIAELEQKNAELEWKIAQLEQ

[31] = molecular target: T31, 4H4001-bA; assay: two-hybrid library CCNG1
T31 chain: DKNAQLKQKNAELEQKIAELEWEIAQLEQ

[32] = molecular target: T32, 4H796-bA; assay: two-hybrid library CCNG1
T32 chain: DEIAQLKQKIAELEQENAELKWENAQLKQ

[33] = molecular target: T33, 4H949-bA; assay: two-hybrid library CCNG1
T33 chain: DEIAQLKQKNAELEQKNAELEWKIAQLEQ

interaction score [1]: -1.88
interaction score [2]: -1.45
interaction score [3]: -1.52
interaction score [4]: -1.48
interaction score [5]: -1.43
interaction score [6]: 2.04
interaction score [7]: -1.55
interaction score [8]: -1.72
interaction score [9]: 0.352
interaction score [10]: -1.27
Binder: DENAALEAELAAIEAKLAAIKAKLAAIKG [APC4011-AA]

interaction score [11]: 0.813
interaction score [12]: -0.623
interaction score [13]: -0.788
interaction score [14]: -0.684
interaction score [15]: -1.15
interaction score [16]: -0.867
interaction score [17]: -0.934
interaction score [18]: 1.06
interaction score [19]: -0.772
interaction score [20]: -0.529
interaction score [21]: -0.388
interaction score [22]: -0.358
interaction score [23]: -2.11
interaction score [24]: -1.26
interaction score [25]: 0.172
Binder: DKNQQLKQKIQELKQENQELEWKIQELKQ [4H3926-bN]

interaction score [26]: -0.961
interaction score [27]: -0.845
interaction score [28]: -1.06
interaction score [29]: -1.47
interaction score [30]: 0.241
interaction score [31]: -0.563
interaction score [32]: -0.941
interaction score [33]: -1.1
Binder: DKNAQLEQKIAELEQKNAELEWKIAQLEQ [4H3381-bA]

Reference: article PMC10397247
